{
  "source": "paper PMC10206775",
  "key": {"[1]": {"target": "BmTFF3 (β-subunit of βγ-CAT) (Bombina maxima (endogenous in skin secretions))"}, "[2]": {"target": "Bombina maxima IgG Fc-binding protein (FCGBP) (Bombina maxima (endogenous in skin secretions))", "experiment": "BLI; FCGBP (10 μg/ml, 0.01 M sodium acetate pH 4.0) amine-coupled to AR2G biosensors; βγ-CAT 1000-31.25 nM in PBS, association 300 s, dissociation 180 s; global fit, 1:1 binding model"}},
  "data": [
    {"substance": "BmALP1 (α-subunit of βγ-CAT) (natural protein)", "values": [
      {"measurement": "dye release from calcein liposomes (fluorescence at 518 nm, % of maximum) by BmALP1 polymer (50 nM) with BmTFF3 (200 nM) and FCGBP at 25, 50 and 150 nM", "setting": "[1]", "result": 76.8, "unit": "%"}
    ]},
    {"substance": "βγ-CAT complex (BmALP1 and BmTFF3)", "values": [
      {"measurement": "Kd", "setting": "[2]", "result": 21.2, "unit": "nM"}
    ]}
  ]
}
